Results from patent US20250163127A1.

target: CD28 (human) (UniProt P10747); test: flow cytometry, transfected cells

| MFI | MFI parental ratio | MFI ratio to WT (ΔWT) | Binder |
| --- | --- | --- | --- |
| 569 MFI | 0.38 fold | – | ICOSL ECD-Fc N84Q/N119Q/N207Q (Fc fusion) DTQEKEVRAMVGSDVELSCACPEGSRFDLNDVYVYWQTSESKTVVTYHIPQNSSLENVDSRYRNRALMSPAGMLRGDFSLRLFQVTPQDEQKFHCLVLSQSLGFQEVLSVEVTLHVAAQFSVPVVSAPHSPSQDELTFTCTSINGYPRPNVYWINKTDNSLLDQALQNDTVFLNMRGLYDVVSVLRIARTPSVNIGCCIENVLLQQQLTVGSQTGNDIGERDKITENPVSTGEKNAAT |
| 157000 MFI | – | 7 fold | ICOSL-Fc N52A/N57F/Q100S (Fc fusion) DTQEKEVRAMVGSDVELSCACPEGSRFDLNDVYVYWQTSESKTVVTYHIPQASSLEFVDSRYRNRALMSPAGMLRGDFSLRLFNVTPQDEQKFHCLVLSSSLGFQEVLSVEVTLHVAANFSVPVVSAPHSPSQDELTFTCTSINGYPRPNVYWINKTDNSLLDQALQNDTVFLNMRGLYDVVSVLRIARTPSVNIGCCIENVLLQQNLTVGSQTGNDIGERDKITENPVSTGEKNAAT |

target: CTLA-4 (Homo sapiens (Human)) (UniProt P16410); test: flow cytometry, transfected cells
Sequence (P16410 36-223): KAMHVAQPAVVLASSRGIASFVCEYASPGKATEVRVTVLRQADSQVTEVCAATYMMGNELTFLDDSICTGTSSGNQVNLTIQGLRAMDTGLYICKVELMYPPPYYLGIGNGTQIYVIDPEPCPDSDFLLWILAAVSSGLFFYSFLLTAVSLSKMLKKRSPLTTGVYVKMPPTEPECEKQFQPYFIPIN

| MFI | MFI parental ratio | MFI ratio to WT (ΔWT) | Binder |
| --- | --- | --- | --- |
| 640 MFI | 0.17 fold | – | ICOSL ECD-Fc N84Q/N119Q/N207Q (Fc fusion) DTQEKEVRAMVGSDVELSCACPEGSRFDLNDVYVYWQTSESKTVVTYHIPQNSSLENVDSRYRNRALMSPAGMLRGDFSLRLFQVTPQDEQKFHCLVLSQSLGFQEVLSVEVTLHVAAQFSVPVVSAPHSPSQDELTFTCTSINGYPRPNVYWINKTDNSLLDQALQNDTVFLNMRGLYDVVSVLRIARTPSVNIGCCIENVLLQQQLTVGSQTGNDIGERDKITENPVSTGEKNAAT |
| 255000 MFI | – | 0.77 fold | ICOSL-Fc N52A/N57F/Q100S (Fc fusion) DTQEKEVRAMVGSDVELSCACPEGSRFDLNDVYVYWQTSESKTVVTYHIPQASSLEFVDSRYRNRALMSPAGMLRGDFSLRLFNVTPQDEQKFHCLVLSSSLGFQEVLSVEVTLHVAANFSVPVVSAPHSPSQDELTFTCTSINGYPRPNVYWINKTDNSLLDQALQNDTVFLNMRGLYDVVSVLRIARTPSVNIGCCIENVLLQQNLTVGSQTGNDIGERDKITENPVSTGEKNAAT |
| 3300 MFI | – | – | ICOSL ECD-Fc N52Q/N84Q/N119Q/N168Q (Fc fusion) DTQEKEVRAMVGSDVELSCACPEGSRFDLNDVYVYWQTSESKTVVTYHIPQQSSLENVDSRYRNRALMSPAGMLRGDFSLRLFQVTPQDEQKFHCLVLSQSLGFQEVLSVEVTLHVAAQFSVPVVSAPHSPSQDELTFTCTSINGYPRPNVYWINKTDNSLLDQALQQDTVFLNMRGLYDVVSVLRIARTPSVNIGCCIENVLLQQNLTVGSQTGNDIGERDKITENPVSTGEKNAAT |

substrate: ICOS (Homo sapiens (Human)) (UniProt Q9Y6W8); test: flow cytometry, transfected cells
Sequence (Q9Y6W8 21-199 limits assumed): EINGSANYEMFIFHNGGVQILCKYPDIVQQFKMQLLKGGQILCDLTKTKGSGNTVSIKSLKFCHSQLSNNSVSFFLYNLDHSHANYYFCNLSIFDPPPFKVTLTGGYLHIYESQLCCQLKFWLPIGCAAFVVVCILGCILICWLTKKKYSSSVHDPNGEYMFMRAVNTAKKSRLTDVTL

| MFI | MFI parental ratio | MFI ratio to WT (ΔWT) | Binder |
| --- | --- | --- | --- |
| 21400 MFI | 0.58 fold | – | ICOSL ECD-Fc N84Q/N119Q/N207Q (Fc fusion) DTQEKEVRAMVGSDVELSCACPEGSRFDLNDVYVYWQTSESKTVVTYHIPQNSSLENVDSRYRNRALMSPAGMLRGDFSLRLFQVTPQDEQKFHCLVLSQSLGFQEVLSVEVTLHVAAQFSVPVVSAPHSPSQDELTFTCTSINGYPRPNVYWINKTDNSLLDQALQNDTVFLNMRGLYDVVSVLRIARTPSVNIGCCIENVLLQQQLTVGSQTGNDIGERDKITENPVSTGEKNAAT |
| 242000 MFI | – | 1.14 fold | ICOSL-Fc N52A/N57F/Q100S (Fc fusion) DTQEKEVRAMVGSDVELSCACPEGSRFDLNDVYVYWQTSESKTVVTYHIPQASSLEFVDSRYRNRALMSPAGMLRGDFSLRLFNVTPQDEQKFHCLVLSSSLGFQEVLSVEVTLHVAANFSVPVVSAPHSPSQDELTFTCTSINGYPRPNVYWINKTDNSLLDQALQNDTVFLNMRGLYDVVSVLRIARTPSVNIGCCIENVLLQQNLTVGSQTGNDIGERDKITENPVSTGEKNAAT |

target: human PD-1 (human) (UniProt Q15116); test: not given
Sequence (Q15116 25-288): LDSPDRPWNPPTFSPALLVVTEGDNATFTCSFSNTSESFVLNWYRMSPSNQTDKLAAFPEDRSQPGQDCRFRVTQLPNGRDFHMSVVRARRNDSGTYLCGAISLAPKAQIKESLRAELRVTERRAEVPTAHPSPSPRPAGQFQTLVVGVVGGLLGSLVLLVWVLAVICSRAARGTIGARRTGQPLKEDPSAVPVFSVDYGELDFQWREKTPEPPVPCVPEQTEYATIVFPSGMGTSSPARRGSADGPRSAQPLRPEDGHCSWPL

| IFN gamma levels pg/mL (MLR) | Binder |
| --- | --- |
| 1190 pg/mL | variant PD-L2 IgV N32D/S67L/V89D Fc fusion (Fc fusion) LFTVTVPKELYIIEHGSNVTLECNFDTGSHVDLGAITASLQKVENDTSPHRERATLLEEQLPLGKALFHIPQVQVRDEGQYQCIIIYGDAWDYKYLTLKVKA |
| 1220 pg/mL | variant PD-L2 IgV I13V/H15Q/Q72H/R76G/I86T Fc fusion (Fc fusion) LFTVTVPKELYIVEQGSNVTLECNFDTGSHVNLGAITASLQKVENDTSPHRERATLLEEQLPLGKASFHIPHVQVGDEGQYQCIITYGVAWDYKYLTLKVKA |
| 1120 pg/mL | variant PD-L2 IgV I13V/H15Q/V89D Fc fusion (Fc fusion) LFTVTVPKELYIVEQGSNVTLECNFDTGSHVNLGAITASLQKVENDTSPHRERATLLEEQLPLGKASFHIPQVQVRDEGQYQCIIIYGDAWDYKYLTLKVKA |
| 1090 pg/mL | variant PD-L2 IgV I13V/H15Q/T47A/Q72H/R76G/I86T Fc fusion (Fc fusion) LFTVTVPKELYIVEQGSNVTLECNFDTGSHVNLGAITASLQKVENDASPHRERATLLEEQLPLGKASFHIPHVQVGDEGQYQCIITYGVAWDYKYLTLKVKA |
| 1080 pg/mL | variant PD-L2 IgV I13V/H15Q/T47A/H69L/R76G/V89D Fc fusion (Fc fusion) LFTVTVPKELYIVEQGSNVTLECNFDTGSHVNLGAITASLQKVENDASPHRERATLLEEQLPLGKASFLIPQVQVGDEGQYQCIIIYGDAWDYKYLTLKVKA |
| 1530 pg/mL | variant PD-L2 IgV I12V/I13V/H15Q/T47A/Q82R/V89D Fc fusion (Fc fusion) LFTVTVPKELYVVEQGSNVTLECNFDTGSHVNLGAITASLQKVENDASPHRERATLLEEQLPLGKASFHIPQVQVRDEGQYRCIIIYGDAWDYKYLTLKVKA |
| 1280 pg/mL | variant PD-L2 IgV E44D/S67L/Q72H/Q82R/V89D Fc fusion (Fc fusion) LFTVTVPKELYIIEHGSNVTLECNFDTGSHVNLGAITASLQKVDNDTSPHRERATLLEEQLPLGKALFHIPHVQVRDEGQYRCIIIYGDAWDYKYLTLKVKA |
| 934 pg/mL | variant PD-L2 IgV H15Q/Q72H/Q74R/R76G/I86T Fc fusion (Fc fusion) LFTVTVPKELYIIEQGSNVTLECNFDTGSHVNLGAITASLQKVENDTSPHRERATLLEEQLPLGKASFHIPHVRVGDEGQYQCIITYGVAWDYKYLTLKVKA |
| 1070 pg/mL | variant PD-L2 IgV H15Q/N18D/T47A/Q72H/V73A/R76G/I86T/V89D Fc fusion (Fc fusion) LFTVTVPKELYIIEQGSDVTLECNFDTGSHVNLGAITASLQKVENDASPHRERATLLEEQLPLGKASFHIPHAQVGDEGQYQCIITYGDAWDYKYLTLKVKA |
| 1270 pg/mL | variant PD-L2 IgV I13V/H15Q/E44V/T47A/Q82R/V89D Fc fusion (Fc fusion) LFTVTVPKELYIVEQGSNVTLECNFDTGSHVNLGAITASLQKVVNDASPHRERATLLEEQLPLGKASFHIPQVQVRDEGQYRCIIIYGDAWDYKYLTLKVKA |
| 1100 pg/mL | variant PD-L2 IgV H15Q/T47A/S67L/R76G/Q82R/V89D Fc fusion (Fc fusion) LFTVTVPKELYIIEQGSNVTLECNFDTGSHVNLGAITASLQKVENDASPHRERATLLEEQLPLGKALFHIPQVQVGDEGQYRCIIIYGDAWDYKYLTLKVKA |
| 1170 pg/mL | variant PD-L2 IgV F2L/H15Q/D46E/T47A/Q72H/R76G/Q82R/V89D Fc fusion (Fc fusion) LLTVTVPKELYIIEQGSNVTLECNFDTGSHVNLGAITASLQKVENEASPHRERATLLEEQLPLGKASFHIPHVQVGDEGQYRCIIIYGDAWDYKYLTLKVKA |
| 1470 pg/mL | variant PD-L2 IgV I13V/H15Q/L33F/T47A/Q82R/V89D Fc fusion (Fc fusion) LFTVTVPKELYIVEQGSNVTLECNFDTGSHVNFGAITASLQKVENDASPHRERATLLEEQLPLGKASFHIPQVQVRDEGQYRCIIIYGDAWDYKYLTLKVKA |
| 1200 pg/mL | variant PD-L2 IgV H15Q/T47A/S67L/Q82R/V89D Fc fusion (Fc fusion) LFTVTVPKELYIIEQGSNVTLECNFDTGSHVNLGAITASLQKVENDASPHRERATLLEEQLPLGKALFHIPQVQVRDEGQYRCIIIYGDAWDYKYLTLKVKA |
| 1210 pg/mL | variant PD-L2 IgV H15Q/V31M/S67L/Q82R/V89D Fc fusion (Fc fusion) LFTVTVPKELYIIEQGSNVTLECNFDTGSHMNLGAITASLQKVENDTSPHRERATLLEEQLPLGKALFHIPQVQVRDEGQYRCIIIYGDAWDYKYLTLKVKA |
| 1720 pg/mL | variant PD-L2 IgV I13V/H15Q/V31A/N45S/Q82R/V89D Fc fusion (Fc fusion) LFTVTVPKELYIVEQGSNVTLECNFDTGSHANLGAITASLQKVESDTSPHRERATLLEEQLPLGKASFHIPQVQVRDEGQYRCIIIYGDAWDYKYLTLKVKA |
| 1190 pg/mL | variant PD-L2 IgV I13V/H15Q/R76G/D77N/Q82R/V89D Fc fusion (Fc fusion) LFTVTVPKELYIVEQGSNVTLECNFDTGSHVNLGAITASLQKVENDTSPHRERATLLEEQLPLGKASFHIPQVQVGNEGQYRCIIIYGDAWDYKYLTLKVKA |
| 1600 pg/mL | variant PD-L2 IgV I13V/H15Q/Q82R/V89D Fc fusion (Fc fusion) LFTVTVPKELYIVEQGSNVTLECNFDTGSHVNLGAITASLQKVENDTSPHRERATLLEEQLPLGKASFHIPQVQVRDEGQYRCIIIYGDAWDYKYLTLKVKA |
| 1060 pg/mL | variant PD-L2 IgV H15Q/S67L/Q72H/R76G/V89D Fc fusion (Fc fusion) LFTVTVPKELYIIEQGSNVTLECNFDTGSHVNLGAITASLQKVENDTSPHRERATLLEEQLPLGKALFHIPHVQVGDEGQYQCIIIYGDAWDYKYLTLKVKA |
| 1370 pg/mL | variant PD-L2 IgV I13V/S67L/Q82R/V89D Fc fusion (Fc fusion) LFTVTVPKELYIVEHGSNVTLECNFDTGSHVNLGAITASLQKVENDTSPHRERATLLEEQLPLGKALFHIPQVQVRDEGQYRCIIIYGDAWDYKYLTLKVKA |
| 1560 pg/mL | variant PD-L2 IgV I13V/H15Q/T47A/S67L/Q72H/R76G/Q82R/V89D Fc fusion (Fc fusion) LFTVTVPKELYIVEQGSNVTLECNFDTGSHVNLGAITASLQKVENDASPHRERATLLEEQLPLGKALFHIPHVQVGDEGQYRCIIIYGDAWDYKYLTLKVKA |
| 1360 pg/mL | variant PD-L2 IgV I13V/H15Q/I36V/T47A/S67L/V89D Fc fusion (Fc fusion) LFTVTVPKELYIVEQGSNVTLECNFDTGSHVNLGAVTASLQKVENDASPHRERATLLEEQLPLGKALFHIPQVQVRDEGQYQCIIIYGDAWDYKYLTLKVKA |
| 836 pg/mL | variant PD-L2 IgV I13V/H15Q/T47A/E58G/S67L/Q82R/V89D Fc fusion (Fc fusion) LFTVTVPKELYIVEQGSNVTLECNFDTGSHVNLGAITASLQKVENDASPHRERATLLGEQLPLGKALFHIPQVQVRDEGQYRCIIIYGDAWDYKYLTLKVKA |
| 1430 pg/mL | variant PD-L2 IgV I13V/H15Q/Q82R Fc fusion (Fc fusion) LFTVTVPKELYIVEQGSNVTLECNFDTGSHVNLGAITASLQKVENDTSPHRERATLLEEQLPLGKASFHIPQVQVRDEGQYRCIIIYGVAWDYKYLTLKVKA |
| 1260 pg/mL | variant PD-L2 IgV I13V/H15Q/S39I/E44D/S67L Fc fusion (Fc fusion) LFTVTVPKELYIVEQGSNVTLECNFDTGSHVNLGAITAILQKVDNDTSPHRERATLLEEQLPLGKALFHIPQVQVRDEGQYQCIIIYGVAWDYKYLTLKVKA |
| 1500 pg/mL | variant PD-L2 IgV H15Q/L33H/S67L/R76G/Q82R/V89D Fc fusion (Fc fusion) LFTVTVPKELYIIEQGSNVTLECNFDTGSHVNHGAITASLQKVENDTSPHRERATLLEEQLPLGKALFHIPQVQVGDEGQYRCIIIYGDAWDYKYLTLKVKA |
| 1700 pg/mL | variant PD-L2 IgV I13V/H15Q/T47A/Q82R Fc fusion (Fc fusion) LFTVTVPKELYIVEQGSNVTLECNFDTGSHVNLGAITASLQKVENDASPHRERATLLEEQLPLGKASFHIPQVQVRDEGQYRCIIIYGVAWDYKYLTLKVKA |
| 941 pg/mL | variant PD-L2 IgV H15Q/S39I/E44D/Q72H/V75G/R76G/Q82R/V89D Fc fusion (Fc fusion) LFTVTVPKELYIIEQGSNVTLECNFDTGSHVNLGAITAILQKVDNDTSPHRERATLLEEQLPLGKASFHIPHVQGGDEGQYRCIIIYGDAWDYKYLTLKVKA |
| 1290 pg/mL | variant PD-L2 IgV H15Q/L33P/T47A/S67L/P71S/V89D Fc fusion (Fc fusion) LFTVTVPKELYIIEQGSNVTLECNFDTGSHVNPGAITASLQKVENDASPHRERATLLEEQLPLGKALFHISQVQVRDEGQYQCIIIYGDAWDYKYLTLKVKA |
